The values that follow come from US20060099650A1 (UNIVERSITY OF MASSACHUSETTS, published 2006).

The target of this assay is T1, TLR4:Fc fusion protein (UniProt O00206 24-631).
T1 construct: The composition is not described beyond 'the related TLR4:Fc'; also called the TLR4 fusion protein; not shown: Fc part; not described for TLR4:Fc (only 'related' to TLR2:Fc, which carries mouse IgG2a Fc)
Description: ELISA, Fc fusion plated on plastic, biotinylated ligand as probe, anti-biotin-HRP detection.

T1 sequence (O00206 24-631 limits assumed): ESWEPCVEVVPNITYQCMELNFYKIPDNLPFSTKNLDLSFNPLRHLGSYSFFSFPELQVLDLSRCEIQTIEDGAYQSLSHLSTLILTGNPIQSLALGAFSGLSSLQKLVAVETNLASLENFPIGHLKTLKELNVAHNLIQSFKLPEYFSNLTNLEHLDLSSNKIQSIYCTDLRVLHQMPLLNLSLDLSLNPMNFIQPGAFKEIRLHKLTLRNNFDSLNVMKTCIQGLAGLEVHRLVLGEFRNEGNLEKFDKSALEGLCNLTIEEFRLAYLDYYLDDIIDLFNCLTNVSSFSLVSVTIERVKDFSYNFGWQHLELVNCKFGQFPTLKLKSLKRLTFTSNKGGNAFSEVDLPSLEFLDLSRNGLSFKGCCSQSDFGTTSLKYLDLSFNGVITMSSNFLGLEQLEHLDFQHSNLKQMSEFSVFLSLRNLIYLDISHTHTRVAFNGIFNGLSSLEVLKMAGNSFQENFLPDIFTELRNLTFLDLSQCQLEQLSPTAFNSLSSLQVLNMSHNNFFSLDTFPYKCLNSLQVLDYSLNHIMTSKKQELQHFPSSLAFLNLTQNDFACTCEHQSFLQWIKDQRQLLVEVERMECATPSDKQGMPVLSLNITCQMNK

B1: PorinB from Neisseria meningitidis (ligand)
chain: DVTLYGTIKAGVETSRSVFHQNGQVTEVTTATGIVDLGSKIGFKGQEDLGNGLKAIWQVEQKASIAGTDSGWGNRQSFIGLKGGFGKLRVGRLNSVLKDTGDINPWDSKSDYLGVNKIAEPEARLISVRYDSPEFAGLSGSVQYALNDNAGRHNSESYHAGFNYKNGGFFVQYGGAYKRHHQVQEGLNIEKYQIHRLVSGYDNDALYASVAVQQQDAKLTDASNSHNSQTEVAATLAYRFGNVTPRVSYAHGFKGLVDDADIGNEYDQVVVGAEYDFSKRTSALVSAGWLQEGKGENKFVATAGGVGLRHKF
modifications: biotinylated in the binding assays (sites not given); not stated as biotinylated in the reporter assay
notes: also called biotinylated PorinB; biotinylated Porin
As to B1, the binding result was “no binding”.
